Measurements taken from patent CN117229395A.
One block for each binder: values may come before it.

Legend:
[1] = target: T1, WHO国际标准降钙素(Human NIBSC code:89/620) (Human) (UniProt P01258); test: sandwich chemiluminescence; CT captured by 10B11 magnetic beads, detected by acridinium ester labelled 14D11
T1 sequence (peptide, looked up): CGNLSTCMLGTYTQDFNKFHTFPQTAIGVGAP

CT1 (human) = target: T2, CT1 (human); test: competition ELISA; antibody pre-incubated with peptide, then on coated CT antigen
T2 sequence (peptide): CGNLSTCMLGTYTQDF

CT10 (human) = target: T3, CT10 (human); test: as above
T3 sequence (peptide): QDFNKFHTFPQ

CT6 (human) = target: T4, CT6 (human); test: as above
T4 sequence (peptide): TQDFNKFHTFP

CT7 (human) = target: T5, CT7 (human); test: as above
T5 sequence (peptide): TQDFNKFHTFPQ

CT18 (human) = target: T6, CT18 (human); test: as above
T6 sequence (peptide): FNKFHT

CT14 (human) = target: T7, CT14 (human); test: as above
T7 sequence (peptide): DFNKFHTFP

CT9 (human) = target: T8, CT9 (human); test: as above
T8 sequence (peptide): QDFNKFHTFP

CT16 (human) = target: T9, CT16 (human); test: as above
T9 sequence (peptide): FNKF

CT12 (human) = target: T10, CT12 (human); test: as above
T10 sequence (peptide): DFNKFHT

CT4 (human) = target: T11, CT4 (human); test: as above
T11 sequence (peptide): YTQDFNKFHTFP

CT8 (human) = target: T12, CT8 (human); test: as above
T12 sequence (peptide): QDFNKFHTF

CT3 (human) = target: T13, CT3 (human); test: as above
T13 sequence (peptide): NKFHTFPQTAIGVGAP

CT17 (human) = target: T14, CT17 (human); test: as above
T14 sequence (peptide): FNKFH

CT11 (human) = target: T15, CT11 (human); test: as above
T15 sequence (peptide): DFNKFH

CT2 (human) = target: T16, CT2 (human); test: as above
T16 sequence (peptide): LGTYTQDFNKFHTFPQ

CT5 (human) = target: T17, CT5 (human); test: as above
T17 sequence (peptide): TQDFNKFHTF

CT15 (human) = target: T18, CT15 (human); test: as above
T18 sequence (peptide): DFNKFHTFPQ

CT13 (human) = target: T19, CT13 (human); test: as above
T19 sequence (peptide): DFNKFHTF

CT47 (human) = target: T20, CT47 (human); test: competition ELISA; antibody pre-incubated with alanine-mutant peptide, then on coated CT antigen
T20 sequence (peptide, C-terminal amide (-NH2)): QTAIGAGAP

CT49 (human) = target: T21, CT49 (human); test: as above
T21 sequence (peptide, C-terminal amide (-NH2)): QTAIGVGAA

CT45 (human) = target: T22, CT45 (human); test: as above
T22 sequence (peptide, C-terminal amide (-NH2)): QTAAGVGAP

CT46 (human) = target: T23, CT46 (human); test: as above
T23 sequence (peptide, C-terminal amide (-NH2)): QTAIAVGAP

CT43 (human) = target: T24, CT43 (human); test: as above
T24 sequence (peptide, C-terminal amide (-NH2)): ATAIGVGAP

CT48 (human) = target: T25, CT48 (human); test: as above
T25 sequence (peptide, C-terminal amide (-NH2)): QTAIGVAAP

CT44 (human) = target: T26, CT44 (human); test: as above
T26 sequence (peptide, C-terminal amide (-NH2)): QAAIGVGAP

CT22 (human) = target: T27, CT22 (human); test: competition ELISA; antibody pre-incubated with peptide, then on coated CT antigen
T27 sequence (peptide, C-terminal amide (-NH2)): QTAIGVGAP

CT23 (human) = target: T28, CT23 (human); test: as above
T28 sequence (peptide, C-terminal amide (-NH2)): IGVGAP

CT26 (human) = test: as above
CT24 (human) = test: as above
CT21 (human) = target: T29, CT21 (human); test: as above
T29 sequence (peptide, C-terminal amide (-NH2)): HTFPQTAIGVGAP

CT25 (human) = target: T30, CT25 (human); test: as above
T30 sequence (peptide, C-terminal amide (-NH2)): VGAP

发光值 at CT(WHO) 0.125pg/ml [1]: 1730
发光值 at CT(WHO) 0.25pg/ml [1]: 2410
发光值 at CT(WHO) 0.5pg/ml [1]: 4030
发光值 at CT(WHO) 1pg/ml [1]: 7460
发光值 at CT(WHO) 2pg/ml [1]: 13600
competition rate (对照样品OD值-检测样品OD值)/对照样品OD值 (CT1 (human)): 1%
competition rate (对照样品OD值-检测样品OD值)/对照样品OD值 (CT10 (human)): 95%
competition rate (对照样品OD值-检测样品OD值)/对照样品OD值 (CT6 (human)): 94%
competition rate (对照样品OD值-检测样品OD值)/对照样品OD值 (CT7 (human)): 95%
competition rate (对照样品OD值-检测样品OD值)/对照样品OD值 (CT18 (human)): 30%
competition rate (对照样品OD值-检测样品OD值)/对照样品OD值 (CT14 (human)): 91%
competition rate (对照样品OD值-检测样品OD值)/对照样品OD值 (CT9 (human)): 95%
competition rate (对照样品OD值-检测样品OD值)/对照样品OD值 (CT16 (human)): 11%
competition rate (对照样品OD值-检测样品OD值)/对照样品OD值 (CT12 (human)): 92%
competition rate (对照样品OD值-检测样品OD值)/对照样品OD值 (CT4 (human)): 99%
competition rate (对照样品OD值-检测样品OD值)/对照样品OD值 (CT8 (human)): 92%
competition rate (对照样品OD值-检测样品OD值)/对照样品OD值 (CT3 (human)): 32%
competition rate (对照样品OD值-检测样品OD值)/对照样品OD值 (CT17 (human)): -14%
competition rate (对照样品OD值-检测样品OD值)/对照样品OD值 (CT11 (human)): 68%
competition rate (对照样品OD值-检测样品OD值)/对照样品OD值 (CT2 (human)): 99%
competition rate (对照样品OD值-检测样品OD值)/对照样品OD值 (CT5 (human)): 91%
competition rate (对照样品OD值-检测样品OD值)/对照样品OD值 (CT15 (human)): 91%
competition rate (对照样品OD值-检测样品OD值)/对照样品OD值 (CT13 (human)): 92%
B1: 14D11 (antibody, V domains shown)
VH: EVQLQQSGPELVKPGTSVKIFCMTSGYTFTEFTMHWVKKSPGESLEWIGGIFPDNGGSTYNRKFKDKATLTVDRSSRTAYLELRSLTSEDSAVYYCARYYYNGRAYGIYAMDYWGQGTSVTVSS
VL: DVVLTQSPLSLFVSLGDQVSISCRSSQSLVHSNGNTYLHWYQLKTGQSPKLLIYTVSNRFSGVPDRFSGSGSGTDFTLKINRVEAEDLGVYFCSQSKLVPWTFGGGTKLEIK

competition rate (对照样品OD值-检测样品OD值)/对照样品OD值 (CT47 (human)): 85%
competition rate (对照样品OD值-检测样品OD值)/对照样品OD值 (CT49 (human)): 56%
competition rate (对照样品OD值-检测样品OD值)/对照样品OD值 (CT45 (human)): 97%
competition rate (对照样品OD值-检测样品OD值)/对照样品OD值 (CT46 (human)): 92%
competition rate (对照样品OD值-检测样品OD值)/对照样品OD值 (CT43 (human)): 97%
competition rate (对照样品OD值-检测样品OD值)/对照样品OD值 (CT48 (human)): 62%
competition rate (对照样品OD值-检测样品OD值)/对照样品OD值 (CT44 (human)): 98%
competition rate (对照样品OD值-检测样品OD值)/对照样品OD值 (CT22 (human)): 98%
competition rate (对照样品OD值-检测样品OD值)/对照样品OD值 (CT23 (human)): 98%
competition rate (对照样品OD值-检测样品OD值)/对照样品OD值 (CT26 (human)): 60%
competition rate (对照样品OD值-检测样品OD值)/对照样品OD值 (CT24 (human)): 98%
competition rate (对照样品OD值-检测样品OD值)/对照样品OD值 (CT21 (human)): 98%
competition rate (对照样品OD值-检测样品OD值)/对照样品OD值 (CT25 (human)): 98%
B2: 10B11 (antibody, V domains shown)
VH: SDVQLQESGPGLVKPSQSLSLTCTVTGYSITSDYVWNWIRQFPGNKLEWMGYISYSGSTNYNPSLKSRISITRDTSKNQFFLQLNSVTTEDTATYYCAREDWPAWGQ
VL: DIVMTQSQKLMSTSVGDRVSITCKASQNVRSAVAWYQQKPGQSPKTLIYLTSNRHTGVPDRFTGSGSGTDFTLTINNVQSEDLADYFCLQHWNSPLTFGGGTKLEIK
